Measured values: the nanobody polyreactivity screen of Harvey et al. (2022)

Test: yeast display, Sf9 membrane polyspecificity reagent, FACS + sequencing; frameworks hold sequencing errors
Procedure, shortened: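 Galactose induction of a Saccharomyces cerevisiae BJ5465 synthetic nanobody display library ran 36–48 hours. The cells were then stained for 1 hour at 4 °C with 10% biotinylated, detergent-solubilized Sf9 membrane reagent, pulled down on streptavidin microbeads and FACS-sorted into low and high (top ~1%) gates on expression and reagent-binding fluorescence. Labels for polyreactivity follow the gate of origin.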

Sequence	polyreactivity (PSR sort gate)
QVQLVESGGGLVQAGGSLRLSCAASGRIFYYNAMGWYRQAPGKERELVAAISGSGGRTYYADSVKGRFTISRDNAKNTVYLQMNSLKPEDTAVYYCAAAGYDSNGRYWGQGTQVTVSS	high polyreactivity
QVQLVESGGGLVQAGGSLRLSCAASGRIFSFNGMGWYRQAPGKERELVAAITTSGGRTYYADSVKGRFTISRDNAKNTVYLQINSLKPEDTAVYYCAAELAWEYYWGQGTQVTVSS	low polyreactivity
QVQLVESGGGLVQAGGSLRLSCAASGRIFRYYAMGGYRQAPGKERELVATISRSGGSTFYAYSVKGRFTISRDNAKNTVYLQMNSLKPEDTAVYYCNARYQTGGYGYWGQGTQVTVSS	high polyreactivity
QVQLVESGGGLVQAGRSLRLSCAASGRISTRYAMGWYRQAPGKERELVAAITIGTDTTYADSVKGRFTISRDNAKNTVYLQMNTLKPEDTAVYYCAAERYILARFEYWGQGTQVTVSS	low polyreactivity
QVQLVESGGGLVQAGGSLRLSCAASGRIFYDNTMGWYRQAPGKERELFAAITWRVGNTNYADSVKGRFTISRDNAKNTVYLQMNSLNPEDTAVYYCAVRLLADDGYPAVVGYDYWGQGTQVTVSS	low polyreactivity
QVQLVESGGGLVQAGGSLRLSCAASGFIFTIYAMGWYRQAPGKERELVAAISSGGSTTYADSVKGRFTISRDNAKNTVYLQMNSLKPEDTAVYYCNAGVDPFGSLLPFTDQYDYWGQGTQVTVSS	low polyreactivity
QDQHVESGGGLVQAGGILRLICAASGPIFGYNAMGWYRQEPGQERELVAAINSDGSKNYADSVKGRFTISRDNAKITVYLQMISLKPEDTAVYYCNQLLYPVGDYEFWGQGTQVTVSS	low polyreactivity
QVQLVESGGGLVQAGGSLRLSCAASGIIFSDYAMGWYRQAPGKERELVAAITGGGSTYYADSVKGRFTISRDNAKNTVYLQMNRLKPEDTAVYYCNADWARLLIRSTEFDYWGQGTQVTVSS	low polyreactivity
QVQLVESGGGLVQAGGSLRLSCAASGLIFYSNAMGWYRQAPGKERELVAAISFNSGSTYYADSVKGRFTISRDNAKNTVYLQMNSLKPEDTAVYYCAKKRRFVVLSVQGDYWGQGTQVTVSS	low polyreactivity
QDQLVESGGCLVQAGGSLRLRCAASGRTFEAYAKGGYRQAPGKERELVASISSGGSTYYADSVNGRFTISRDNAKNTVYLQMNSLKPEDTAVYYCAAKRATRYYFAYYRARSERMNYWGQGTQVTVSS	high polyreactivity
QVQLVESGGGLVQAGGSLRLSCAASGSTFYRYAMGWYRQAPGKERELVAAISGSGGRTYYADSVKGRFTISRDNAKNTVYLQMNSLKPEDTAVYYCATRFGQRSDYWGQGTQVTVSS	high polyreactivity
QVQHVESGGGLVQAGGRLRLSCAASGSTFDYYVMGWYRQAPGKEREMVAAISQNAGSTYYADSVKGRFTISRDNAKNTVYLQMNSLKPEDTAVYYCAAPDYRNGVRYPLDYWGQGTQVTVSS	low polyreactivity
QVQLVESGGGLVQAGGSLRLSCAASGSTIFPYAMGWYRQAPGKERELVAAITSGGNTNYADSVKGRFTISRDNAKNTVYLQMNSLKPEDTAVYYCAADYFWHYRKYDYWGQGTQVTVSS	low polyreactivity
QVQLVESGGGLVQAGGSLRLSCAASGFTSNYYAMGWYRQAPGKERELVAAITTGGSTHYADSVKGRFTISRDNAKNTVYLQMNSLKPEDTAVYYCAAGTNRQQQRYFHPGGYYQYNYWGQGSQVTVSS	low polyreactivity
QVQLVESGGGLVQAGGSLRLSCAASGSTFATYAMVWYRQAPGKERELVAAITSGGSTYYADSVKGRFTISRDNAKNTVYLQMNSLKPEDTAVYYCAARSYGWRRATYYKREEYWGQGTQVTVSS	high polyreactivity
QFQLVEAGGGLVQAGGSLRLSCAASGSIFTYAMGWYRQAPGKEREFVAAISRSGGRTYYADSVKGRFTMSRDNAKNTVYFQMNSLKPDDTAVYYCAPLLLKDYDYWGQGTQVTVSS	low polyreactivity
QVQLVESGGGLVQAGGSLRLSCAASGFTYFQYAMGWYRQAPGKERELVAAITSGVSTNYADSVKGRFTISRDNAKNTVYLQMNSLKPEDTAVYYCAADPRYLQSWRGEFAGEYWGQGTQVTVSS	low polyreactivity
QVQLVESGGGLVQAGGSLRLSCAASGFTFVPYAMGWYRQAPGKEREFVADITSSGTTNYADSVKGRFTISRDNAKNTVYLQMNSLKPEDTAVYYCAADPDSGQVPFDYWGQGTQVTVSS	low polyreactivity
QVQLVESGGGLVQAGGSLRLSCAASGSIFYYNAMGWYRQAPGKERELVATITSGGSTYYADSVKGRFTISRDNAKNTVYLQMNSLKPEDTAVYYCAPRSQSIRYTYIRSYYWGQGTQVTVSS	low polyreactivity
QVQLVESGGGLVQAGGSLRLSCAASGLTFTYYAMGWYRQAPGKERELVAAITGGARTYYADSVKGRFTISRDNAKNTVYLQMNSLKPEDTAVYYCATQGAQKRYKYNYWGQGTQVTVSS	high polyreactivity
QVLLVESGGGLVQAGGSLRLSCAASGFTFGTNAMVWYRQAPGKERELVAAISSRGGSTYYADSVKGRFTISRDNAKNTVYLLMNSLNPEDTAVYYCARRVARRQHEYGYWGQGTQVTVSS	high polyreactivity
QVQLVESGGGLVQAGGSLRLSCAASGITFTFNAMGWYRQAPGKDRELVAAMTWSGGSTFYADSVKGRFTISRDNAKNTVYLQMNSLKPEDSAVYYCARDTELYVRWLDYWGQGTQVTVSS	low polyreactivity

Sequence	polyreactivity (PSR sort gate)
QVQLVESGGGLVQAGGSLRLSCAASGITFPKYAMGWYRQAPGTERELVAAITKSGGSTYYADSVKGRFTISRDNAKNTVYLQMNSLKPEDTEVYYCAVVSRGITKYDYWGQGTQVTVSS	high polyreactivity
QVQLVESGGGLVQAGGSLLLSCAASGSTFYKYAMGWYRQAPGKERELVARNSRGGGSTYYADSVKGRFTISRDNAKNTVYLQMNSLKPEDTAVYYCAAGVRGQNEGYYWGQGTQVTVSS	high polyreactivity
QVQLVESGGGLVQAGGRHRLSCAASGRTFWGYGMGWYRQPPGKDRELVATISSGGSTYYEDSVKGRFTISRDNAMNTVYLQMNSLKPEDTAVYYCAARPPRSYWRYQSDYWGLGTQVTVSS	high polyreactivity
QVQLVESGGGLVQAGGSLRLSCAASGSIFWVYAMGWYRQAPGKERELVAVIDWSGDSTYYADSVKGRFTISRDNAKNTVYLQMNSLKPEDTAVYYCSAEVYVDYTGYSYFDYPYDYWGQGTQVTVSS	low polyreactivity
QVQLVESGGGLVQAGGSLRLSCAASGRIFTRYTMGWYRQAPGKERQLVASITSSGSSSYYADSVKGRFTISRDYAKNTVYLQMNSLKPEDTAVYYCAARSRLRYLYDYWGHGTQVTVSS	high polyreactivity
QVQLVESGGGLVQAGGSLRLSCAASGSIFGWYGMGWYRQAPGKERELVAAINWGGTNTYYADSVKGRFTISRDNAKNTVYLQMISLKPEDTAVYSCNADIPRRPNRHYLYDYWGQATQVTVSS	low polyreactivity
QVQLVESGGGLVQAGGSLRLICAASGIILVYYDMGWYRQAPGKEMELVDTISRGGSTNYADSVMGRFTISRDNAKNTVYLQMISLKPEDTAVNYCAAGSYSIWVHLVRYYYWGQGTQVTVSS	high polyreactivity
QVQLVESGGGLVQAGGSLRLSCAASGRTFGRYAMGWYRQAPGKERELVAAISTSGGSTYYADSVKGRFTISRDNAKNTVYLQMNSLKPEDTAVYYCAATIGRRSYNQMYYWGQGTQVTVSS	high polyreactivity
QVQLVESGGGLVQAGGSLRLSCAASGFIFAYYVMGWYRQAPGKERELVAAITSRGGRTYYADSVKGRFTISRDNAKNTVYLQMNSLKPEDTAVYYCAAYRQLVNLREDYWGQGTQVTVSS	high polyreactivity
QVQLVESGVGLVQAGGSLRLSCAASGSIFDINAMGWYRQAPGKERELVAVITDSGSTYYADSVKGRFTISRDNAKNTVYLQMNSLKPEDTAVYYCAAESSLLFFLMDYWGQGTQVTVSS	low polyreactivity
QVQLVESGGGLVQAGGSLRLSCAASGITFYDNVMGWYRQAPGKERELVAAITSGGSTNYADSVKGRFTISRDNAKNTVYLQMNSLKPEDTAVYYCAAQPRVDYEFPYRYGYWGQGTQVTVSS	low polyreactivity
QVQLVESGGGLVQAGGSLRLSCAASGRIVRNAMGWYRQSPGKERELVAAISRSGGSTYYADSVKGRFTISRDNAKNTVYLQMNSLKPEDTAVYYCAKRSTSQSLQGEYWGQGTQVTVSS	high polyreactivity
QVQLVETGGGLVQAGGSLRLSCAASGRIFYGNAMGWYRHAPGKERELVAAITRSGSSTYYADSVKGRFTISRDNAKNTVYLLMNSLKPEDTAVSYCAVKYFDYVGQYAYYYWGQGTQVTVSS	high polyreactivity
QVQLVESGGGLVQAGGSLRLSCAASGFTFDGYAMGWYRQAPGKERELVAAISQSGGSTYYADSVKGRVTISRDNAKNTVYLQMNSLKPEDTAVYYCNAYTGYRIRYDYWGQGTQVTVSS	high polyreactivity
QVQLVESGGGLVHAGGSLRLSCADSGSTLGSNAMGWYRQAPGKERELVAAITWSGGTTYYADSVKGRFTISRDNAKNTVYLQMNSLKPEDTAVYYCATGQSVIYRYEYWGQGTQVTVSS	low polyreactivity
QVQLVESGGGLVQAGGSLRLSCAASGLTFVDNAMGWYRQAPRKERELVAGITQSGGSTNYADSVKGRFTISRDNAKNTVYLQMNSLKPEDTAVYYCAKDTYRAYFRWEYGYWGQGTQVTVSS	low polyreactivity
QGQLVESGGGLVQAGGSLPLSCAASGFTFRWNTMGWSRQGPGKEREFVASISQRGGRTFYADSVKGRFTISRDNAKNTVYIQMNCQKPEDTAVYFCNARGHRAVPGDELGYWGQGTQVTVSS	low polyreactivity
QVQLVESGGGLVQAGGSLRLSCAASGSTFYGYTMGWYRQAPGKERELVAAISWRGGSTYYADSVKGRFTISRDNAKNTVYLQMNSLKPEDTAVYYFAARPYIVTYPWRRYDYWGQGTQVTVSS	high polyreactivity
KVQLVESGGGLVQAGGSLRLSSADSGRIYVGYAIVWYRQEPGKEMEMVAGISRSGDSTYYADSVKGRFTISRDNAKNTVYLQMNSLKPEDTAVYYCAARINYWGYYYWGQGSQVTVSS	high polyreactivity
QVQLVDSGGGLVQAGGSLRLSCSASGYNFIGYAMGWYRQAPGKERELVATITSGGSTNYADSVKGRFTISRDNAKNTVYLQMNSLNPEDTAVYYCAAGRGRYFYSWRYLYAIFDYWGQGTQVTVSS	low polyreactivity
QVQLVESGGCLVQAGGSLRLSCAASGRIFRRYAMGWYRQAPGKERELVASITCGGSSTSYADSVKGRFTISRDNAKNTVYLQMNSLKPEDTAVYYCAKGGVFGTYLNEYDYCGQGTQVTVSS	low polyreactivity
